B1: LINE1-full (parent)
chain: UACGUAGGUGGUUUUCCCCUGAUAGUGCUAAGGGGGCCUGGAAGUUUGGACUGGGCAGAGCUCAACACAGCGUGGCAAAGUGGCUGUGGCUAGACUGCCUCUCUGGAUUCCUCGUCACUCAGCAGGGCAUCUCUGAGAGAAAUGCC

The variants in the data set derive from B1. Put plainly: self-cleavage, relative activity (ratio to wild type); higher = more cleavage; in vitro, sequencing; the parent is a self-cleaving ribozyme.
A64C U143C: the self-cleavage is 0.35.

Take C61G A77G: the self-cleavage came to 0.07.

On to U62A C103A, for which the self-cleavage is 0.04.

C63A A140G: the self-cleavage turned out to be 0.

Regarding A59G U112A, the self-cleavage came out at 0.09.

Take A59G U112C: the self-cleavage turned out to be 0.13.

On to A59G U109C, for which the self-cleavage is 0.17.

C63A A121U: the self-cleavage amounted to 0.

With U62C C146U, the self-cleavage came to 0.03.

In the case of A59U C99U, the self-cleavage stood at 0.46.

For the variant U62G A77G, the self-cleavage is 0.07.

For A59U C103U, the self-cleavage came to 0.5.

As to G60A U91C, the self-cleavage came out at 0.

On to C63U U73G, for which the self-cleavage is 0.21.

With U62A A136G, the self-cleavage is 0.03.

As to U62A A136U, the self-cleavage amounted to 0.14.

Turning to U62C C76U, the self-cleavage turned out to be 0.07.

For the variant A59G U91C, the self-cleavage was 0.11.

Take A59G U91A: the self-cleavage is 0.09.

For the variant G60A A64G, the self-cleavage worked out at 0.04.

In the case of U62A A117C, the self-cleavage is 0.05.

As to U62A A117G, the self-cleavage was determined as 0.08.

In the case of A64G A79G, the self-cleavage was found to be 0.24.

Consider U62C U132A, for which the self-cleavage was 0.05.

As to U62C A124U, the self-cleavage worked out at 0.05.

U62C A64C: the self-cleavage was 0.

In the case of U62C A64U, the self-cleavage was found to be 0.05.

On to C61U A64U, for which the self-cleavage was found to be 0.06.

With G60A A142G, the self-cleavage was 0.04.

U62C U104A: the self-cleavage was found to be 0.05.

Take U62C U104C: the self-cleavage worked out at 0.07.

As to U62C U73G, the self-cleavage is 0.06.

Take U62C U73A: the self-cleavage was determined as 0.03.

As to U62C A94G, the self-cleavage was determined as 0.11.

As for U62C A94C, the self-cleavage stood at 0.07.

With A59U G127A, the self-cleavage turned out to be 0.65.

Consider G60A A65U, for which the self-cleavage worked out at 0.05.

As to U62G A136G, the self-cleavage was 0.

Regarding C61A, the self-cleavage worked out at 0.04.

For C61G, the self-cleavage worked out at 0.06.

As to C61U, the self-cleavage worked out at 0.04.

Regarding A59G G93U, the self-cleavage amounted to 0.03.

For the variant A59G U143A, the self-cleavage stood at 0.08.

Consider U62C C90U, for which the self-cleavage amounted to 0.05.

With G60A A141G, the self-cleavage was 0.02.

Turning to A59U A142G, the self-cleavage stood at 1.08.

In the case of A59U A142C, the self-cleavage is 1.03.

On to U62C C111A, for which the self-cleavage turned out to be 0.02.

Regarding U62C G89A, the self-cleavage is 0.01.

For A64C U112C, the self-cleavage turned out to be 0.29.

U62G U108C: the self-cleavage worked out at 0.07.

As to U62C G70U, the self-cleavage stood at 0.

A64G A117G: the self-cleavage came to 0.21.

With U62A U119A, the self-cleavage turned out to be 0.04.

Turning to U62C G114A, the self-cleavage worked out at 0.05.

Take U62A A65C: the self-cleavage is 0.07.

For U62C C110A, the self-cleavage turned out to be 0.05.

Take G60A U85C: the self-cleavage worked out at 0.01.

Turning to A64C C101U, the self-cleavage is 0.28.

For U62C A141U, the self-cleavage stood at 0.03.

Consider G60A U132C, for which the self-cleavage stood at 0.03.

Regarding U62A G93U, the self-cleavage worked out at 0.03.

As for C63U U119G, the self-cleavage was determined as 0.37.

Take C61A A79G: the self-cleavage was 0.02.

Regarding A64G A136G, the self-cleavage stood at 0.22.

In the case of A64G A136U, the self-cleavage was found to be 0.28.

On to G60A G72A, for which the self-cleavage came to 0.01.

Consider G60A A67G, for which the self-cleavage was 0.08.

As for U62C G93U, the self-cleavage is 0.03.

Turning to U62A A92G, the self-cleavage amounted to 0.07.

Consider U62A A92U, for which the self-cleavage is 0.03.

As for A59U A65G, the self-cleavage turned out to be 0.03.

Regarding A64G A92G, the self-cleavage stood at 0.14.

For C63U U132A, the self-cleavage worked out at 0.46.

Consider C63U U132C, for which the self-cleavage worked out at 0.35.

On to U62A A142G, for which the self-cleavage came to 0.02.

Turning to C63U A141G, the self-cleavage is 0.36.

For the variant U62A A69G, the self-cleavage amounted to 0.02.

U62A A69U: the self-cleavage came to 0.05.

With C63U U100C, the self-cleavage is 0.99.

As to C63U U100G, the self-cleavage worked out at 0.35.

Take C63A A129U: the self-cleavage was found to be 0.06.

As for C63A A129G, the self-cleavage is 0.09.

Take G60A U62C: the self-cleavage is 0.04.

As for U62A A78G, the self-cleavage was determined as 0.05.

Regarding A64G A141U, the self-cleavage turned out to be 0.17.

On to A64G A141C, for which the self-cleavage is 0.11.

G60C: the self-cleavage is 0.05.

As for G60U, the self-cleavage was found to be 0.01.

G60A: the self-cleavage is 0.02.

As for U62C G137A, the self-cleavage is 0.17.

C63U U143C: the self-cleavage was 0.3.

As for C63U U143A, the self-cleavage came out at 0.44.

Consider G60A A78G, for which the self-cleavage worked out at 0.04.

For the variant G60A A78U, the self-cleavage amounted to 0.02.

On to C61U G114U, for which the self-cleavage is 0.01.

In the case of C61U G82A, the self-cleavage was 0.02.

For U62C A142G, the self-cleavage worked out at 0.06.

For the variant U62A A79U, the self-cleavage came out at 0.03.

On to U62A U130A, for which the self-cleavage amounted to 0.03.

C61U U112G: the self-cleavage worked out at 0.04.

For U62C U130C, the self-cleavage turned out to be 0.06.

On to U62C G83U, for which the self-cleavage is 0.03.

For the variant U62A U85C, the self-cleavage is 0.08.

For U62A U85G, the self-cleavage was 0.

As to U62A U85A, the self-cleavage turned out to be 0.02.

For G60C U115C, the self-cleavage was determined as 0.02.

In the case of A59U C63A, the self-cleavage amounted to 0.02.

In the case of U62C U119C, the self-cleavage was found to be 0.07.

Regarding U62C U119A, the self-cleavage turned out to be 0.07.

On to U62C U143A, for which the self-cleavage was 0.06.

U62C U143C: the self-cleavage was determined as 0.06.

As to G60A A136G, the self-cleavage came to 0.02.

Consider A59U U130A, for which the self-cleavage was 0.74.

On to U62A A138U, for which the self-cleavage was determined as 0.06.

For the variant U62A A138G, the self-cleavage was 0.06.

With C63A U130C, the self-cleavage is 0.05.

With A64C C95A, the self-cleavage is 0.01.

Turning to U62A A121U, the self-cleavage is 0.06.

Take A59U A140G: the self-cleavage stood at 0.89.

As for U62G U73C, the self-cleavage came to 0.

Turning to A64C U73A, the self-cleavage worked out at 0.32.

Regarding A59U U73C, the self-cleavage came to 1.27.

Turning to U62C A129G, the self-cleavage was 0.06.

For the variant U62C A129U, the self-cleavage came out at 0.01.

With U62G A138G, the self-cleavage was 0.09.

As for A64C U132C, the self-cleavage came out at 0.34.

Regarding G60A A79G, the self-cleavage is 0.05.

Take C63U U91G: the self-cleavage was found to be 0.04.

As for C63U U91C, the self-cleavage was found to be 0.18.

Consider U62C C98A, for which the self-cleavage stood at 0.03.

In the case of U62C C98U, the self-cleavage is 0.02.

As to A64G C98U, the self-cleavage is 0.11.

Consider G60A A69U, for which the self-cleavage is 0.03.

Turning to G60A A69G, the self-cleavage turned out to be 0.05.

Turning to A59G G144A, the self-cleavage was found to be 0.12.

As to C61A U81C, the self-cleavage was 0.04.

Take A59U C71U: the self-cleavage was found to be 0.64.

For U62C U100C, the self-cleavage is 0.09.

Regarding G60A A129U, the self-cleavage is 0.02.

As for U62C G97C, the self-cleavage stood at 0.06.

In the case of U62A C110U, the self-cleavage was found to be 0.08.

In the case of C61U U100A, the self-cleavage worked out at 0.01.

Consider A59G G114C, for which the self-cleavage was found to be 0.03.

On to A59U U115A, for which the self-cleavage came to 0.8.

In the case of A59U U112A, the self-cleavage worked out at 0.83.

As for A59U U112C, the self-cleavage came out at 1.51.

As for A59U A129C, the self-cleavage turned out to be 1.15.

In the case of A59U A129U, the self-cleavage came out at 0.51.

In the case of A59U A129G, the self-cleavage was determined as 0.86.

Regarding C63U A107G, the self-cleavage stood at 0.45.

In the case of U62C U112C, the self-cleavage turned out to be 0.05.

For the variant U62A C128U, the self-cleavage is 0.03.

A59G U81A: the self-cleavage came out at 0.1.

With A59G U81C, the self-cleavage worked out at 0.09.

As to G60C U109C, the self-cleavage came out at 0.1.

As for U62C C145U, the self-cleavage stood at 0.

As for U62C G127A, the self-cleavage was 0.06.

With U62C A77U, the self-cleavage turned out to be 0.03.

Regarding U62C A77G, the self-cleavage was determined as 0.08.

With A59G U132A, the self-cleavage worked out at 0.06.

In the case of U62C U96C, the self-cleavage stood at 0.06.

As for U62A A141G, the self-cleavage stood at 0.05.

Take A64G A121G: the self-cleavage came out at 0.28.

Turning to G60A U104C, the self-cleavage amounted to 0.07.

Turning to U62G U87A, the self-cleavage is 0.1.

Regarding U62G U87G, the self-cleavage was 0.

Source of the values: the RNAGym collection of RNA variant scans (doi:10.7554/elife.90254).
